B1: RA440 (nucleic acid)
DNA: GCGCGTCCTGGATTCGCGGAAACGCGTACATCCAGCTGACGAGTCCCAAATAGGACGAAACGCCGGAATACCAGCATCGTCTTGATGCCCTTGGAAGTCCGGC
modifications: expressed or natural sequence
B2: RA438 (nucleic acid)
DNA: GCGCGTCCTGGATTCGCGGAAACGCGTACATCCAGCTGACGAGTCCCAAATAGGACGCGGAATACCAGCATCGTCTTGATGCCCTTGGAAGTCCGAAACGCGC
modifications: expressed or natural sequence
B3: RA421 (nucleic acid)
DNA: GCGCGTCCTGGATTCGCGGAAAGAGAATACCAGCATCGTCTTGATGCCCTTGGAAGTCTCCGCGTACATCCAGCTGACGAGTCCCAAATAGGACGAAACGCGC
modifications: expressed or natural sequence
B4: RA426 (nucleic acid)
DNA: GCGCGTCCTGGATTCGCGGAAACGCGTACATCCAGCTGACGAGTCCCAAATAGGACGCCGGAATACCAGCATCGTCTTGATGCCCTTGGAAGTCCGGAAACGCGC
modifications: expressed or natural sequence
B5: RA437 (nucleic acid)
DNA: GCGCGTCCTGGATTCGCGGAAACGCGTACATCCAGCTGACGAGTCCCAAGAATACCAGCATCGTCTTGATGCCCTTGGAAGTCTAATAGGACGAAACGCGC
modifications: expressed or natural sequence
B6: RA422 (nucleic acid)
DNA: GCGCGTCCTGGATTCGCGGAAACGCGTACATCCAGCTGACGAGTCCCAAATAGGACGACGGAATACCAGCATCGTCTTGATGCCCTTGGAAGTCCGAACGCGC
modifications: expressed or natural sequence
B7: RA435 (nucleic acid)
DNA: GCGCGTCCTGGATTCGCGGAAACGCGTACATCCAGCTGACGAGTCCCAAACGGAATACCAGCATCGTCTTGATGCCCTTGGAAGTCCGTAGGACGAAACGCGC
modifications: expressed or natural sequence
B8: RA420 (nucleic acid)
DNA: GCGCGTCCTGGATTCGCGGAAACGGAGAATACCAGCATCGTCTTGATGCCCTTGGAAGTCTCCGTACATCCAGCTGACGAGTCCCAAATAGGACGAAACGCGC
modifications: expressed or natural sequence
B9: RA433 (nucleic acid)
DNA: GCGCGTCCTGGATTCGCGGAAACGCGTACATCCAGCTGACGAGTCCCAAATAGGAAGTGATACCAGCATCGTCTTGATGCCCTTGGCAGCACTCGAAACGCGC
modifications: expressed or natural sequence
B10: RA424 (nucleic acid)
DNA: GCGCGTCCTGGATTCGCGGAAACGCGTACATCCAGCTGCGAGAATACCAGCATCGTCTTGATGCCCTTGGAAGTCTCGACGAGTCCCAAATAGGACGAAACGCGC
modifications: expressed or natural sequence
B11: RA430 (nucleic acid)
DNA: GCGCGTCCTGGATTCGCGGAAACGCGTACATCCAGCTGAGAGAATACCAGCATCGTCTTGATGCCCTTGGAAGTCTCCGAGTCCCAAATAGGACGAAACGCGC
modifications: expressed or natural sequence
B12: RA436 (nucleic acid)
DNA: GCGCGTCCTGGATTCGCGGAAACGCGTACATCCAGCGGAATACCAGCATCGTCTTGATGCCCTTGGAAGTCCGCTGACGAGTCCCAAATAGGACGAAACGCGC
modifications: expressed or natural sequence
B13: RA418 (nucleic acid)
DNA: GCGCGTCCTGGATTCGCGGAAACGCGTACATCGAGAATACCAGCATCGTCTTGATGCCCTTGGAAGTCTCGCCAGCTGACGAGTCCCAAATAGGACGAAACGCGC
modifications: expressed or natural sequence
B14: RA431 (nucleic acid)
DNA: GCGCGTCCTGGATTCGCGGAAACGCGTACATCCACGGAATACCAGCATCGTCTTGATGCCCTTGGAAGTCCGGCTGACGAGTCCCAAATAGGACGAAACGCGC
modifications: expressed or natural sequence
B15: RA042 (nucleic acid)
DNA: GCGCGTCCTGGATTCGCGGAAACGCGTACATCCAAGAATACCAGCATCGTCTTGATGCCCTTGGAAGTCTGCTGACGAGTCCCAAATAGGACGAAACGCGC
modifications: expressed or natural sequence
B16: RA043 (nucleic acid)
DNA: GCGCGTCCTCGAGAATACCAGCATCGTCTTGATGCCCTTGGAAGTCTCGGGATTCGCGGAAACGCGTACATCCAGCTGACGAGTCCCAAATAGGACGAAACGCGC
modifications: expressed or natural sequence
B17: RA439 (nucleic acid)
DNA: GCGCGTGAGAATACCAGCATCGTCTTGATGCCCTTGGAAGTCTCCCTGGATTCGCGGAAACGCGTACATCCAGCTGACGAGTCCCAAATAGGACGAAACGCGC
modifications: expressed or natural sequence
B18: RA041 (nucleic acid)
DNA: GCGCGTCCTGGATTCGCGGAAACGCGAGTGATACCAGCATCGTCTTGATGCCCTTGGCAGCACTTACATCCAGCTGACGAGTCCCAAATAGGACGAAACGCGC
modifications: expressed or natural sequence
B19: RA434 (nucleic acid)
DNA: GCGCGTCCAGAATACCAGCATCGTCTTGATGCCCTTGGAAGTCTTGGATTCGCGGAAACGCGTACATCCAGCTGACGAGTCCCAAATAGGACGAAACGCGC
modifications: expressed or natural sequence
B20: RA428 (nucleic acid)
DNA: GCGCGTCCTGGATTCGCGGAAACGCGTACATCCAGCTGACGAGTCCGAGAATACCAGCATCGTCTTGATGCCCTTGGAAGTCTCCAAATAGGACGAAACGCGC
modifications: expressed or natural sequence
B21: RA417 (nucleic acid)
DNA: GCGCGTCCTGGATTCGCGGAAACGCGTACATCCAGCTGACGAGTCCCAAATCGGAATACCAGCATCGTCTTGATGCCCTTGGAAGTCCGAGGACGAAACGCGC
modifications: expressed or natural sequence
B22: RA425 (nucleic acid)
DNA: GCGCGTCCTGGATTCGCGGAAACGCGTACAGGAATACCAGCATCGTCTTGATGCCCTTGGAAGTCCTCCAGCTGACGAGTCCCAAATAGGACGAAACGCGC
modifications: expressed or natural sequence
B23: RA432 (nucleic acid)
DNA: GCGCGTCCTGGATTCGCGGAAACGCGTACATCCAGCTGACGAGTCCCACCGGAATACCAGCATCGTCTTGATGCCCTTGGAAGTCCGGAATAGGACGAAACGCGC
modifications: expressed or natural sequence
B24: RA429 (nucleic acid)
DNA: GCGCGTCCTGGATTCGCGGGGAATACCAGCATCGTCTTGATGCCCTTGGAAGTCCAAACGCGTACATCCAGCTGACGAGTCCCAAATAGGACGAAACGCGC
modifications: expressed or natural sequence
B25: RA423 (nucleic acid)
DNA: GCGCGTCCTGGATTCGCGGAAACGCGTACATCCAGCTGACGAGCCGGAATACCAGCATCGTCTTGATGCCCTTGGAAGTCCGGTCCCAAATAGGACGAAACGCGC
modifications: expressed or natural sequence
B26: RA416 (nucleic acid)
DNA: GCGCGTCCTGGACGGAATACCAGCATCGTCTTGATGCCCTTGGAAGTCCGTTCGCGGAAACGCGTACATCCAGCTGACGAGTCCCAAATAGGACGAAACGCGC
modifications: expressed or natural sequence
B27: RA419 (nucleic acid)
DNA: GCGCGTCCTGGATTCGCGGAAACGCGTACATCCAGCTGACGAGTCCCAAATAGGACGAAAGAATACCAGCATCGTCTTGATGCCCTTGGAAGTCTACGCGC
modifications: expressed or natural sequence
B28: RA427 (nucleic acid)
DNA: GCGCGTCCTGCCGGAATACCAGCATCGTCTTGATGCCCTTGGAAGTCCGGGATTCGCGGAAACGCGTACATCCAGCTGACGAGTCCCAAATAGGACGAAACGCGC
modifications: expressed or natural sequence

Test system: Renilla luciferase RNA
Experiment: Barcoded aptazyme variant library screen: un-cleaved Renilla luciferase RNA by barcode read counts, HEK293-T cells
Assay type: cell-based
Conditions: triplicate
Summary of the method: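 Aptazyme variants (seven theophylline aptamers inserted after each T3H48 ribozyme nucleotide, 9-nt barcoded) cloned into the 3′ UTR of Renilla luciferase in psiCHECK-2; cells cultured ± theophylline, in triplicate. RNA and DNA barcodes amplified and sequenced; normalized read counts gave un-cleaved RNA fraction and ON/OFF fold-change.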

[1] = un-cleaved Renilla luciferase RNA by barcode read counts, with 1 mM theophylline (ON) over without theophylline (OFF), HEK293-T cells
[2] = un-cleaved Renilla luciferase RNA, HEK293-T cells cultured with 1 mM theophylline (ON) over without theophylline (OFF), barcode read counts

Row | Molecule | Fold change in RNA expression between the ON state and the OFF state [1] | Fold change in RNA expression between the ON state and the OFF state [2] [fold]
1 | B1 | 0.6 | –
2 | B2 | 0.6 | –
3 | B3 | 0.6 | –
4 | B4 | 0.6 | –
5 | B5 | 0.6 | –
6 | B6 | 0.6 | –
7 | B7 | 0.6 | –
8 | B8 | 0.6 | –
9 | B9 | 0.6 | –
10 | B10 | 0.6 | –
11 | B11 | 0.6 | –
12 | B12 | 0.6 | –
13 | B13 | 0.7 | –
14 | B14 | 0.6 | –
15 | B15 | – | 2.1
16 | B16 | – | 2.1
17 | B17 | 0.6 | –
18 | B18 | – | 2.1
19 | B19 | 0.6 | –
20 | B20 | 0.6 | –
21 | B21 | 0.7 | –
22 | B22 | 0.6 | –
23 | B23 | 0.6 | –
24 | B24 | 0.6 | –
25 | B25 | 0.6 | –
26 | B26 | 0.7 | –
27 | B27 | 0.7 | –
28 | B28 | 0.6 | –

— US20260167959A1, “APTAZYME-BASED REGULATABLE GENE EXPRESSION SYSTEMS” (REJUVENATE BIO INC, priority 2022, published 2026)
